Experimental data from patent US20250129146A1, “COMBINED CANCER THERAPY WITH AN EPITHELIAL CELL ADHESION MOLECULE (EPCAM) INHIBITOR AND A WNT INHIBITOR” (ACADEMIA SINICA, priority 2021, published 2025).
Entries after “also recorded” stand apart in the source; their conditions may differ. Like-named read-outs stand apart in the source and are kept apart here.

T1: EpCAM (Homo sapiens, UniProt P16422)
T1 construct: HEK293T cells were transfected with full length or EGF like-domain deletion mutant EpCAM-V5; V5; expressed in transfected cells; host or cells: HEK293T
T1 sequence (P16422 24-314): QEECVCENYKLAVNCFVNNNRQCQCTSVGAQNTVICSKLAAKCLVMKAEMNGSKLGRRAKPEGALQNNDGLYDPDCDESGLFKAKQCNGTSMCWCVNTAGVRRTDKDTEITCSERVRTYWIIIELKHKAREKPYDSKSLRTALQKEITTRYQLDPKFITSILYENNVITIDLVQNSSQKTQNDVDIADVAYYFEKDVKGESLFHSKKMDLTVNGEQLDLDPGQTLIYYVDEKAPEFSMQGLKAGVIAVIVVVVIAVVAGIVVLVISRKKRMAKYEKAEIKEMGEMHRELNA

T2: recombinant FZD6 (Homo sapiens, UniProt O60353)
T2 construct: purchased Proteintech
T2 sequence (O60353 19-706): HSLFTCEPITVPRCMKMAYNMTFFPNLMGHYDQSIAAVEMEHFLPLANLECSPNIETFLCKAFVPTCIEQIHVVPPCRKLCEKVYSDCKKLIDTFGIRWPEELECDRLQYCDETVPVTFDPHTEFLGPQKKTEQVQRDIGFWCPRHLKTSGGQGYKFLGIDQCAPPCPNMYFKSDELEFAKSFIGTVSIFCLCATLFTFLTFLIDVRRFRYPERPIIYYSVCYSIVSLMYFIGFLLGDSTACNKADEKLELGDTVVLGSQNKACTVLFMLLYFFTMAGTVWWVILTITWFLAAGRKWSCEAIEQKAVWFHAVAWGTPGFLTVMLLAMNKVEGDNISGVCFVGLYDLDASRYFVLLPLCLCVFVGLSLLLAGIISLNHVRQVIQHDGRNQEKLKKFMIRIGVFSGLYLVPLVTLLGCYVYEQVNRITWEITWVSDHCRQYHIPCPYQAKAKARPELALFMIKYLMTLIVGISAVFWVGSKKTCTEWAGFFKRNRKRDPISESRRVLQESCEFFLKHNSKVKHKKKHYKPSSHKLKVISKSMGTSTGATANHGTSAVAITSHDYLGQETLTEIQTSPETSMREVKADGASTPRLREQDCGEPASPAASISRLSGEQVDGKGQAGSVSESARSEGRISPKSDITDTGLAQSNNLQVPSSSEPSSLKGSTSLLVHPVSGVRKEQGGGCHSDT


Key:
EpCAM [1] = target: T1, EpCAM; conditions: general description of other anti-EpCAM antibodies; cited from earlier work
[2] = test system: colon cancer cells (SW620, HCT116); conditions: general description of other anti-EpCAM antibodies; cited from earlier work
EpCAM [3] = experiment: Antibody binding to EpCAM wild-type, deletion and point mutants in HEK293T cells (immunofluorescence, flow cytometry, cellular ELISA); parameters: species or system human; conditions: mutations at EpCAM positions Y32 (EGF-I domain) or Y95 (EGF-II domain); HEK293T cells
Description: (§1) FIGS. 18A to 18G. […] HEK293T cells were transfected with full length or EGF like-domain deletion mutant EpCAM-V5. Antibody binding was assessed by (FIG. 8A) Western blotting, (FIG. 8B) flow cytometry, and (FIG. 8C) immunofluorescence. (FIG. 8D) EpCAM mutants were constructed with amino acid substitutions in the EGF-I (Y32A) and EGF-II (L94A, Y95A, or D96A) domains. EpCAM wild-type and mutant proteins were expressed in HEK293T cells. Binding of MT201, EpAb2-6 and EpAb23-1 to EpCAM wild-type and mutants were evaluated by (FIG. 8E) immunofluorescence, (FIG. 8F) flow cytometry, and (FIG. 8G) cellular ELISA. All data are presented as mean±SEM. *, p<0.05; **, p<0.01.
(§2) Here, we wanted to determine whether the antibody binds to EpCAM at both EGF-like domains of EpEX (FIG. 18A, FIG. 18B, FIG. 18C). To confirm that EpAb2-6 recognizes the LYD motif in EpCAM, we constructed cDNA sequences encoding the first (aa 27-59; EGF-I domain) and second (aa 66-135; EGF-II/TY domain) EGF-like repeats of EpCAM. PCR-based site-directed mutagenesis was then used to introduce mutations into each domain (FIG. 18D). The reactivity of EpAb2-6 antibody toward these EpCAM mutants was evaluated by immunofluorescence (FIG. 18E), flow cytometry (FIG. 18F), and cellular ELISA (FIG. 18G).

HCT116 cells [4] = experiment: Metastatic animal model of human CRC (HCT116 cells via tail vein); format: in vivo, NOD/SCID mice
Description: (§3) All animal experiments were approved and performed according to the regulations from the IACUC at Academia Sinica. HCT116 cells (1×10^6) were injected via tail vein for the metastatic model. Otherwise, 2×10^5 HCT116 cells with luciferase were surgically transplanted into the cecum wall for the orthotopic model. Male NOD/SCID mice, approximately 6 to 8 weeks old, were used for animal experiments (n=5 and n=6 for each treatment group in metastatic and orthotopic models respectively). At 72-h post-injection/transplantation, mice were randomly distributed into four different treatment groups. For the treatments, animals were injected with 20 mg/kg IgG or EpAb2-6 via tail vein twice a week for four weeks, or fed by oral gavage with either vehicle [0.5% methylcellulose (Sigma-Aldrich) and 0.5% Tween80 (Sigma-Aldrich)] or 5 mg/kg LGK974 (MedChemExpress) formulated with the vehicle on alternating days for four weeks, or animals were treated with the combination of both inhibitor and antibody. For the metastatic model, survival was the main endpoint. For the orthotopic model, tumor progression was monitor using bioluminescence imaging. To image the tumors, intraperitoneal injection of D-Luciferin (GOLD BIO) was performed, and images were taken 10 min post-injection.

HCT116 cells [5] = experiment: Orthotopic animal model of human CRC (HCT116 cells with luciferase in cecum wall); format: in vivo, NOD/SCID mice; conditions: orthotopic model
Description: as §3

EpCAM [6] = target: T1, EpCAM; experiment: Antibody binding to EpCAM wild-type, deletion and point mutants in HEK293T cells (immunofluorescence, flow cytometry, cellular ELISA); conditions: EGF-like domain deletion and point mutants
Description: as §1, §2

recombinant LRP6 = target: T3, recombinant LRP6 (Homo sapiens, UniProt O75581); experiment: ELISA of EpEX binding to Wnt receptor-coated plates (LRP6); conditions: EpEX-His alone, 2 hours; optical density at 450 nm
T3 construct: purchased Proteintech
T3 sequence (O75581 20-1613): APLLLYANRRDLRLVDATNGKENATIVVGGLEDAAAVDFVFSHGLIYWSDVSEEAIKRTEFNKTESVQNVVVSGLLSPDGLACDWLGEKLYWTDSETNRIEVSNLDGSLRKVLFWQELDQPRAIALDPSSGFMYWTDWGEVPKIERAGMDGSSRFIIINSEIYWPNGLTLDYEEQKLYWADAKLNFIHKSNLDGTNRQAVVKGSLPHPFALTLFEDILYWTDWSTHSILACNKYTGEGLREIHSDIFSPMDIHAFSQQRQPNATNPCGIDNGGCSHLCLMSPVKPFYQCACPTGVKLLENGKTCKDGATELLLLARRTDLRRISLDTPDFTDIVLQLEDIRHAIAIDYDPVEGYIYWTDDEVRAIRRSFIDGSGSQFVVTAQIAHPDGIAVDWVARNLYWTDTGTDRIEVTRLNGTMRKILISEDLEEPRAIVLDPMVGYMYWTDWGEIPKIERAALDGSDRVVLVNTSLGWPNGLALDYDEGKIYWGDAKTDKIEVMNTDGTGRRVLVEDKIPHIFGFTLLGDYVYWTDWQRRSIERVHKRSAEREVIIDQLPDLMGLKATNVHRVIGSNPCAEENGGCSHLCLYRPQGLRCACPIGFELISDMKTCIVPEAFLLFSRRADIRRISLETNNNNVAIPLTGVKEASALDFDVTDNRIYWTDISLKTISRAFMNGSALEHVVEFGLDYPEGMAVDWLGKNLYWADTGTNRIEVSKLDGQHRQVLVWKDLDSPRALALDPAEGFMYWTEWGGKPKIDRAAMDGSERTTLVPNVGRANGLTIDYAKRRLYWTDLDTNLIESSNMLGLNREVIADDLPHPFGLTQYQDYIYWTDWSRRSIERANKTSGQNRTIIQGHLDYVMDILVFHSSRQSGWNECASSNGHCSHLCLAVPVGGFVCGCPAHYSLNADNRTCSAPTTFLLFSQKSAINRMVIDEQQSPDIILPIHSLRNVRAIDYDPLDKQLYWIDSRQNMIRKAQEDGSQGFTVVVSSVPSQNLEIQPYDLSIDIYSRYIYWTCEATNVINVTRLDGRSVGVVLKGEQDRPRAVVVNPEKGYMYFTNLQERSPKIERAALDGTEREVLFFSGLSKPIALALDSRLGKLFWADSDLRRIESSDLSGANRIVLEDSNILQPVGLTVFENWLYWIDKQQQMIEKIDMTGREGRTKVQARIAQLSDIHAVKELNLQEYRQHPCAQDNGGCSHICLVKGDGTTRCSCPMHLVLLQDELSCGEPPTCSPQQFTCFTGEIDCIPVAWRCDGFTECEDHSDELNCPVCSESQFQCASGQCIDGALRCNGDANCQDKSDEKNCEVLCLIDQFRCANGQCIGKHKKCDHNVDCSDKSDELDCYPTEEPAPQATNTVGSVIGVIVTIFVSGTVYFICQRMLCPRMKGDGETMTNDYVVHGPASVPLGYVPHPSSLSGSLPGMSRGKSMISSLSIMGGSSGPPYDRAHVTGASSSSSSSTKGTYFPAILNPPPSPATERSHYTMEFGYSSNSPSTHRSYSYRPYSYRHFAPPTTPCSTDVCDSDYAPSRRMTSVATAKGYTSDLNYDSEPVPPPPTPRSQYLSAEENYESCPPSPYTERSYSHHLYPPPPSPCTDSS
Description: (§4) For ELISA, wells (at least 6 wells per single protein) were coated with recombinant FZD6 (Proteintech), recombinant FZD7 (Proteintech), recombinant LRP5 (Proteintech), recombinant LRP6 (Proteintech) overnight at 4° C. The wells were then blocked with 1% BSA and treated with EpEX-his (Produced in house by Expi293 Expression System) for 2 hours. Otherwise, EpEX-His was incubated with EpAb2-6 overnight and the complex was used to treat the protein-coated plates for 2 hours. Further anti-His antibody (abeam) was used and TMB was performed to record optical density at 450 nm.

recombinant FZD6 = target: T2, recombinant FZD6; experiment: ELISA of EpEX binding to Wnt receptor-coated plates (FZD6); conditions: EpEX-His alone, 2 hours; optical density at 450 nm
Description: as §4

[7] = 20 mg/kg EpAb2-6 via tail vein twice a week, 5 mg/kg LGK974 oral gavage on alternating days, four weeks

Molecule	EpCAM domains bound (EpCAM [1])	inducing apoptosis of cancer cells [2]	antibody binding to EpCAM mutants (EpCAM [3])	animal survival (HCT116 cells [4]; [7])	mice died by the end of the study (HCT116 cells [4]; n=5 per group)	median / overall survival (HCT116 cells [5])	tumor progression (bioluminescence) (HCT116 cells [5]; [7])	EpCAM domains bound (EpCAM [6])	EpEX binding to LRP6 (recombinant LRP6)	EpEX binding to FZD6 (recombinant FZD6)
MT201: adecatumumab, a human anti-EpCAM antibody that was subjected to clinical trials [reference compound]	target only the well-described EGF I domain of EpCAM; also recorded: binding to domain I only	failing	did not affect MT201 binding	–	–	–	–	–	–	–
EpAb2-6: anti-EpCAM (EpEX) neutralizing monoclonal antibody produced in mice by hybridoma; VH SEQ ID NO: 15, VL SEQ ID NO: 16 (antibody, V domains shown) VH: VKLQESGPELKKPGETVKISCKASGYTFTDYSMHWVKQAPGKGLKWMGWINTETGEPTYADDFKGRFAFSLETSASTAYLQINNLKNEDTATYFCARTAVYWGQGTTVTVSS VL: DIQMTQSPSSLSASLGERVSLTCRASQEISVSLSWLQQEPDGTIKRLIYATSTLDSGVPKRFSGSRSGSDYSLTISSLESEDFVDYYCLQYASYPWTFGGGTKLEIK	–	–	marked reductions in EpAb2-6 binding	can prolong animal survival; also recorded: could prolong animal survival	2 out of 5	relatively higher median survival	much slower tumor progression	binds to the EGF-I and EGF-II domains of EpEX; also recorded: binds to both EGF-like domain I and II of EpCAM	–	–
EpEX: extracellular domain of EpCAM, produced in house by Expi293 Expression System (protein) QEECVCENYKLAVNCFVNNNRQCQCTSVGAQNTVICSKLAAKCLVMKAEMNGSKLGRRAKPEGALQNNDGLYDPDCDESGLFKAKQCNGTSMCWCVNTAGVRRTDKDTEITCSERVRTYWIIIELKHKAREKPYDSKSLRTALQKEITTRYQLDPKFITSILYENNVITIDLVQNSSQKTQNDVDIADVAYYFEKDVKGESLFHSKKMDLTVNGEQLDLDPGQTLIYYVDEKAPEFSMQGLKAGVIAVIVVVVIAVVAGIVVLVISRKKRMAKYEKAEIKEMGEMHRELNA	–	–	–	–	–	–	–	–	bind with all receptor proteins	bind with all receptor proteins
